# Measured values from article doi:10.1101/2025.06.12.659319, “A bipartite, mutation-tolerant NLS regulates interaction of ΔNp63α with importin alpha, nuclear transport and transcriptional activity” (bioRxiv, 2025).
# Where no end group is shown, it is not given here. The star is where a group is joined. FITC = O=C1OC2(c3ccc(O)cc3Oc3cc(O)ccc32)c2ccc(NC(=S)*)cc21
# B1: FITC-ΔNp63α NLSbip peptide (residues 278-302) (peptide)
# peptide: {FITC}-DGTKRPFRQNTHGIQMTSIKKRRSP
# notes: ΔNp63α (p63), human, residues 278-302, bipartite NLS; numbers count on: the ΔNp63α isoform (Q9H3D4-2); also called p63 NLS; source: synthetic peptide (GenScript)
# Target: mouse IMPα2ΔIBB (importin α2 lacking the IMPβ1 binding domain) (mouse, UniProt P52293 70-529)
# Test: crystal structure; IMPα2ΔIBB crystals (hanging drop, 650 mM sodium citrate, 100 mM HEPES pH 6.5, 10 mM DTT, 23°C) soaked with the peptide; 2.20 Å
# Details: both partners purified
binder,measurement,value
B1,binding result,binds
